For this data set, the system named is Saccharomyces cerevisiae. As to the kind of experiment: protein stability index of tFT-peptide fusion (C-terminal peptide) (PSI (0-1 scale)); higher = more stable (slower turnover). The note with it: temperature: 30 C. The protocol: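 MPS profiling in S. cerevisiae of the yeast C-terminome library: the last 12 aa of each annotated ORF are fused to the C-terminus of a sfGFP-mCherry timer, after a GGGS linker. Cells are FACS-sorted into 8 mCherry/sfGFP bins and deep-sequenced. PSI runs from 0 (unstable) to 1 (stable); wild type and das1Δ backgrounds, two technical replicates each.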

Setting [1] is: genetic background: das1 deletion.

± gives the standard deviation of the averaged measurements.

Take IGKQKCFIIEMR [MSY1 C-terminal 12 aa]: the protein stability index under setting [1] was 0.6688 ± 0.00094 and the protein stability index (genetic background: wild type) worked out at 0.679 ± 0.0098.

IHFGETSNYSFD [SMC5 C-terminal 12 aa]: the protein stability index under setting [1] is 0.722 ± 0.02 and the protein stability index (genetic background: wild type) stood at 0.698 ± 0.017.

As for IHNDIPSHRKLK [FIR1 C-terminal 12 aa], the protein stability index is 0.699 ± 0.022 under setting [1] and 0.6589 ± 0.0014 (genetic background: wild type).

As to IHRVIKNATPVA [PEX28 C-terminal 12 aa], the protein stability index was 0.624 ± 0.027 under setting [1] and 0.649 ± 0.026 (genetic background: wild type).

In the case of IHSGYTNISYTI [MCM16 C-terminal 12 aa], the protein stability index stood at 0.709 ± 0.0077 under setting [1] and 0.7012 ± 0.0067 (genetic background: wild type).

Regarding IHYKMNENSTNQ [SYO1 C-terminal 12 aa], the protein stability index is, setting by setting: under setting [1], 0.689 ± 0.0075; (genetic background: wild type) 0.68 ± 0.04.

As to IIEEKVRNYLNK [RIB5 C-terminal 12 aa], the protein stability index reads like this: under setting [1], 0.696 ± 0.061; (genetic background: wild type) 0.685 ± 0.01.

On to IKDAIKNGTGLL [MET31 C-terminal 12 aa], for which the protein stability index worked out at 0.677 ± 0.0075 under setting [1] and 0.678 ± 0.014 (genetic background: wild type).

Take IKKEVSRRLNGR [CUR1 C-terminal 12 aa]: the protein stability index by setting is: under setting [1], 0.647 ± 0.016; (genetic background: wild type) 0.692 ± 0.03.

As for IKNSSLAVLHST [YKL162C C-terminal 12 aa], the protein stability index by setting is: under setting [1], 0.705 ± 0.021; (genetic background: wild type) 0.205 ± 0.019.

The sequence IKTIVEAMDVLS [PCC1 C-terminal 12 aa] had a protein stability index under setting [1] of 0.67028 ± 4.3e-05 and a protein stability index (genetic background: wild type) of 0.656 ± 0.025.

With ILELPHVVSDLF [SDT1 C-terminal 12 aa], the protein stability index by setting is: under setting [1], 0.713 ± 0.0089; (genetic background: wild type) 0.7147 ± 0.0022.

The sequence IMALIAESGDDF [ERV14 C-terminal 12 aa] came in with a protein stability index under setting [1] of 0.673 ± 0.021 and a protein stability index (genetic background: wild type) of 0.7007 ± 0.0027.

Turning to INDNNENASNSV [GLD1 C-terminal 12 aa], the protein stability index runs as follows: under setting [1], 0.6943 ± 0.0069; (genetic background: wild type) 0.676 ± 0.024.

In the case of INRRQTPLQSNA [CDC39 C-terminal 12 aa], the protein stability index came to 0.7 ± 0.011 under setting [1] and 0.666 ± 0.011 (genetic background: wild type).

With IQINKGDNIFKN [YTM1 C-terminal 12 aa], the protein stability index by setting is: under setting [1], 0.688 ± 0.026; (genetic background: wild type) 0.732 ± 0.025.

Take IRIVITINKVTL [IRC9 C-terminal 12 aa]: the protein stability index turned out to be 0.348 ± 0.0076 under setting [1] and 0.36577 ± 0.00023 (genetic background: wild type).

As to IRKPDDKFSSFI [YOR072W C-terminal 12 aa], the protein stability index reads like this: under setting [1], 0.702 ± 0.0082; (genetic background: wild type) 0.706 ± 0.032.

As for IRMYLGSSLDIE [SRX1 C-terminal 12 aa], the protein stability index by setting is: under setting [1], 0.69 ± 0.013; (genetic background: wild type) 0.6815 ± 0.0061.

Regarding ISICILDLASHL [YBL071C C-terminal 12 aa], the protein stability index was found to be 0.6703 ± 0.0038 under setting [1] and 0.669 ± 0.018 (genetic background: wild type).

As for ISLWYKHNRVKG [YPR077C C-terminal 12 aa], the protein stability index by setting is: under setting [1], 0.677 ± 0.017; (genetic background: wild type) 0.5619 ± 0.0045.

Regarding ISSGPPPRSPNK [IGO2 C-terminal 12 aa], the protein stability index reads like this: under setting [1], 0.68 ± 0.01; (genetic background: wild type) 0.6422 ± 0.0036.

Consider ISTAPEQMMFLP [MSG5 C-terminal 12 aa], for which the protein stability index by setting is: under setting [1], 0.7169 ± 0.0058; (genetic background: wild type) 0.7155 ± 0.0068.

Turning to ISVSKKTLKSNW [HOP1 C-terminal 12 aa], the protein stability index turned out to be 0.698 ± 0.011 under setting [1] and 0.686 ± 0.022 (genetic background: wild type).

As for “IVKIIRFNHASV [YHL048C-A C-terminal 12 aa]”, the protein stability index is, setting by setting: under setting [1], 0.685 ± 0.016; (genetic background: wild type) 0.658 ± 0.034.

For the sequence IVNDVWLPFQKW [DSD1 C-terminal 12 aa], the protein stability index amounted to 0.729 ± 0.03 under setting [1] and 0.701 ± 0.02 (genetic background: wild type).

Consider IWKKVPETKRSG [VPS73 C-terminal 12 aa], for which the protein stability index runs as follows: under setting [1], 0.707 ± 0.019; (genetic background: wild type) 0.669 ± 0.022.

For IYSVTKKRNTRI [RSF2 C-terminal 12 aa], the protein stability index under setting [1] came out at 0.725 ± 0.026 and the protein stability index (genetic background: wild type) was 0.693 ± 0.092.

IYYKSQNWRREC [YBR219C C-terminal 12 aa]: the protein stability index is, setting by setting: under setting [1], 0.707 ± 0.045; (genetic background: wild type) 0.169 ± 0.0069.

Regarding KAEASEAAHDEL [CPR5 C-terminal 12 aa], the protein stability index under setting [1] is 0.695 ± 0.0055 and the protein stability index (genetic background: wild type) turned out to be 0.676 ± 0.038.

As to KAGREELERVNV [QCR8 C-terminal 12 aa], the protein stability index under setting [1] stood at 0.688 ± 0.026 and the protein stability index (genetic background: wild type) is 0.685 ± 0.015.

For the sequence KAINFDEDVLNL [VID30 C-terminal 12 aa], the protein stability index runs as follows: under setting [1], 0.66 ± 0.017; (genetic background: wild type) 0.748 ± 0.02.

Consider KALQKAMGSVQF [YEL1 C-terminal 12 aa], for which the protein stability index by setting is: under setting [1], 0.702 ± 0.018; (genetic background: wild type) 0.687 ± 0.03.

In the case of KARIVVAKSGEL [CPR1 C-terminal 12 aa], the protein stability index was 0.686 ± 0.018 under setting [1] and 0.645 ± 0.015 (genetic background: wild type).

KCLDLLKTELGE [POC4 C-terminal 12 aa]: the protein stability index is, setting by setting: under setting [1], 0.699 ± 0.018; (genetic background: wild type) 0.6935 ± 0.0043.

Consider KDSAQSLDDLLM [SFM1 C-terminal 12 aa], for which the protein stability index was found to be 0.7007 ± 0.0043 under setting [1] and 0.6969 ± 0.0046 (genetic background: wild type).

As to KDSKEYFKNANN [TSA2 C-terminal 12 aa], the protein stability index under setting [1] came out at 0.714 ± 0.022 and the protein stability index (genetic background: wild type) is 0.716 ± 0.02.

Take KEFKQFEFHNRR [RRP36 C-terminal 12 aa]: the protein stability index runs as follows: under setting [1], 0.729 ± 0.011; (genetic background: wild type) 0.681 ± 0.011.

As for KERSHHFVRNMN [YKL102C C-terminal 12 aa], the protein stability index stood at 0.707 ± 0.0071 under setting [1] and 0.637 ± 0.048 (genetic background: wild type).

In the case of KERTHLFQLIRK [EFM6 C-terminal 12 aa], the protein stability index stood at 0.699 ± 0.0076 under setting [1] and 0.6923 ± 0.0018 (genetic background: wild type).

Consider KEVPLDFDPDRN [ANP1 C-terminal 12 aa], for which the protein stability index reads like this: under setting [1], 0.683 ± 0.037; (genetic background: wild type) 0.688 ± 0.022.

With KEWKEKEKTGKQ [MPC1 C-terminal 12 aa], the protein stability index is, setting by setting: under setting [1], 0.728 ± 0.012; (genetic background: wild type) 0.702 ± 0.022.

KFDKPLYERLET [YNR014W C-terminal 12 aa]: the protein stability index reads like this: under setting [1], 0.6855 ± 0.0028; (genetic background: wild type) 0.651 ± 0.044.

Consider KFQDVLDNFLQG [ETT1 C-terminal 12 aa], for which the protein stability index is, setting by setting: under setting [1], 0.713 ± 0.019; (genetic background: wild type) 0.685 ± 0.01.

For KFSSTSRYMQYN [RPT1 C-terminal 12 aa], the protein stability index reads like this: under setting [1], 0.705 ± 0.016; (genetic background: wild type) 0.642 ± 0.017.

Regarding KGATIKEIVLND [ATH1 C-terminal 12 aa], the protein stability index under setting [1] stood at 0.69826 ± 0.00054 and the protein stability index (genetic background: wild type) worked out at 0.672 ± 0.012.

The sequence KGGRLSSKPIIM [SPT3 C-terminal 12 aa] showed a protein stability index under setting [1] of 0.683 ± 0.019 and a protein stability index (genetic background: wild type) of 0.686 ± 0.034.

In the case of KGVFWDPACVIA [MFA1 C-terminal 12 aa], the protein stability index worked out at 0.731 ± 0.0082 under setting [1] and 0.713 ± 0.031 (genetic background: wild type).

With KHCPYVFIPYVF [ERG4 C-terminal 12 aa], the protein stability index turned out to be 0.5262 ± 0.00096 under setting [1] and 0.273 ± 0.0033 (genetic background: wild type).

For the sequence KHGLNDWIVGQK [YPL225W C-terminal 12 aa], the protein stability index by setting is: under setting [1], 0.712 ± 0.021; (genetic background: wild type) 0.745 ± 0.035.

On to KHKNILFFNHNT [YJR162C C-terminal 12 aa], for which the protein stability index by setting is: under setting [1], 0.725 ± 0.015; (genetic background: wild type) 0.199 ± 0.0036.

“KHKNILSFNDNT [YER188C-A C-terminal 12 aa]” had a protein stability index under setting [1] of 0.731 ± 0.015 and a protein stability index (genetic background: wild type) of 0.747 ± 0.068.

On to KHKQYFWKRPTK [PLM2 C-terminal 12 aa], for which the protein stability index is, setting by setting: under setting [1], 0.714 ± 0.015; (genetic background: wild type) 0.692 ± 0.019.

Turning to KHVGKGCGYSYH [STP4 C-terminal 12 aa], the protein stability index was 0.696 ± 0.024 under setting [1] and 0.6985 ± 0.0052 (genetic background: wild type).

Consider KILDEINLDRIK [HEM3 C-terminal 12 aa], for which the protein stability index by setting is: under setting [1], 0.689 ± 0.0094; (genetic background: wild type) 0.681 ± 0.052.

For the sequence KILTQHLQDLQS [RKM2 C-terminal 12 aa], the protein stability index is, setting by setting: under setting [1], 0.6934 ± 0.0063; (genetic background: wild type) 0.714 ± 0.077.

KIQWDIDPQLDG [SSY5 C-terminal 12 aa]: the protein stability index by setting is: under setting [1], 0.743 ± 0.033; (genetic background: wild type) 0.723 ± 0.082.

Turning to KIVSGLVRTNSS [YIL060W C-terminal 12 aa], the protein stability index reads like this: under setting [1], 0.703 ± 0.019; (genetic background: wild type) 0.717 ± 0.024.

For KKARKMPTWVKR [MRPS9 C-terminal 12 aa], the protein stability index under setting [1] came out at 0.693 ± 0.032 and the protein stability index (genetic background: wild type) worked out at 0.65752 ± 7.3e-05.

With KKKLVKKTKSKK [RIO1 C-terminal 12 aa], the protein stability index is, setting by setting: under setting [1], 0.739 ± 0.01; (genetic background: wild type) 0.705 ± 0.081.

As to KKKQNDGKSLRS [DBP8 C-terminal 12 aa], the protein stability index reads like this: under setting [1], 0.687 ± 0.013; (genetic background: wild type) 0.732 ± 0.0081.

Take KLAKPAPTSKLD [TDA4 C-terminal 12 aa]: the protein stability index was 0.6901 ± 0.0021 under setting [1] and 0.692 ± 0.025 (genetic background: wild type).

Take KLIHIPIRYVIV [SSS1 C-terminal 12 aa]: the protein stability index runs as follows: under setting [1], 0.424 ± 0.03; (genetic background: wild type) 0.3647 ± 0.00092.

For the sequence KLQPQVYKPWSL [RSC8 C-terminal 12 aa], the protein stability index reads like this: under setting [1], 0.6842 ± 0.0019; (genetic background: wild type) 0.703 ± 0.0092.

KNHDFKDCADIF [SWH1 C-terminal 12 aa]: the protein stability index runs as follows: under setting [1], 0.721 ± 0.017; (genetic background: wild type) 0.688 ± 0.043.

With KNIPEKFKNGIF [SSP120 C-terminal 12 aa], the protein stability index runs as follows: under setting [1], 0.729 ± 0.036; (genetic background: wild type) 0.647 ± 0.0098.

Consider KNLQNELEKNNA [RTN1 C-terminal 12 aa], for which the protein stability index was determined as 0.6887 ± 0.0022 under setting [1] and 0.6647 ± 0.0021 (genetic background: wild type).

Regarding KNLTRTSVSFIG [TRS85 C-terminal 12 aa], the protein stability index is, setting by setting: under setting [1], 0.7307 ± 0.0033; (genetic background: wild type) 0.702 ± 0.037.

Source of the values: the supplement of paper PMC10724198.
